Test results: the nanobody polyreactivity screen of Harvey et al. (2022)

Assay: yeast display, Sf9 membrane polyspecificity reagent, FACS + sequencing; frameworks hold sequencing errors
Summary of the method: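 Genes from sorted yeast were amplified by colony PCR, read by MiSeq 2 × 250 sequencing and filtered on CDR length. These cells carried a synthetic nanobody library in Saccharomyces cerevisiae BJ5465 and were sorted by FACS into low and high (top ~1%) gates on anti-HA and streptavidin fluorescence. Polyreactivity is labelled according to the gate of origin.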

Sequence: QVQLVESGGGLVQAGGSLRLSCAASASISYYYAMGWYRQETGKERELVAAITRTGTTNYADSVKGRFTISRDNAKNTVYLQMNSLKPEDTAVYYCAKRSTGRLQSYNYRGQGTQVTVSS
- polyreactivity (PSR sort gate): low polyreactivity

Sequence: QVQLVESGGGLVQAGGSLRLSCAASGGIFGWYAMGWYRQAPGKERELVATITWRGGRTYYADSVKGRFTISRDNAKNTVYLQMNSLKPEDTAVYYCNAEWLWYDAGYRYTIRDSWGQGTQVTVSS
- polyreactivity (PSR sort gate): low polyreactivity

Sequence: QVQLVESGGGLVQAGGSLRLSCAASGSTFVGYAMGWYRQAPGKERELVAAISGGDSTYYADSVKGRFTLSRDNAQNTVYLQKNSLNPEDTALYYCAVGWTFDRRGYGYWGQGTQVTVSS
- polyreactivity (PSR sort gate): low polyreactivity

Sequence: QVQLVESGGGLVQAGRSHRLTCAASGSTDSNAMGWYRQAPGKERELVAAISGTGSRTYYADSVKGRFTISRDNAKNSVYLEMNSLKPEDTAVYYCAASPDVSFRRFSLVVSGDYWGQGNQVTVSS
- polyreactivity (PSR sort gate): high polyreactivity

Sequence: QVQLVDSGGGIVQAGGSLRLSCPASGITFPKYAMGWYRQAPGKERELVAAITKSSGSTYYADSVKGRFTISRDNAKNTVYLQMKSLKPEDTAVYYCAARRVNHIRSYSYVSNYGYWGQGTQVTVSS
- polyreactivity (PSR sort gate): high polyreactivity

Sequence: QVQLVESGGGLVQAGGSLRLSCAASGLIFRPYAMGGYRQAPGKARELVAAITSGGSTDYADSLKGRFTISRDNAKNTVYLQMNSLNPEDTAVFYCNADFYPHDGYPWQGDYDYWGQGTQVTVSS
- polyreactivity (PSR sort gate): low polyreactivity

Sequence: QVQLVESGGGLVQAGGSLRLSCAASGGTFSNNAMGWYRQAPGKERELVAAISNSGGRTYYADSVKGRFTISRDNAKNTVYLQMNSLKPEDTAVYYCNVRRGYWHPGYGWANYDYWGQGTQVTVSS
- polyreactivity (PSR sort gate): high polyreactivity

Sequence: QVQLVESGGGLVQAGGSLRLSCAASGITFRANAMGWYRQAPGKERELVAAISARGGSTYYADSVKGRFTISRDNAKNTVYLQMNSLKPEDTAVYYCNAVAYRSRSEYDYWGQGTQVTVSS
- polyreactivity (PSR sort gate): high polyreactivity

Sequence: QVQLVESGGGLVQAGGSLRLSCAASGITFGLYSMGWYRQAPGKQRELVASISQSGGSTYYADSVKGRFTISRDNAKNTVYLQMNSLKPEDTAVYYCNARRRFWDFSTRGYDSWGQGTQVTVSS
- polyreactivity (PSR sort gate): high polyreactivity

Sequence: QVQLVESGGGLVQAGGSLRLSSDASGNTFVYNAMGWYRQAPGKERKLVAGITKTGGRTYYADSVKGRFTISRDNAKNTVYLQMNSLKPDDTAVYYCAARPWNDGYYVGRFHMDYWGQGTQVTLSS
- polyreactivity (PSR sort gate): low polyreactivity

Sequence: QVKLVESGGGLVQAGGSLRLSCAASGRISFYYAMGWYRQAPGKERELVATISSSGGSTHYADSVKGRFTISRDNAKNTVYLQMNSLKPEDTAVYYCARDDSERIWLEQSGYWGQGTQVTVSS
- polyreactivity (PSR sort gate): low polyreactivity

Sequence: QVQLVESGGGLVQAGGSLRLSCAASGITFIPNAMGWYRQAPGKERELVAAISISGGRTYYADSVKGRFTISRDNAKNTVYLQMNSLKPEVTAVYYCAVDSWSRVQGWLAHNYDYWGQGTQVTVSS
- polyreactivity (PSR sort gate): low polyreactivity

Sequence: QFQLVESGGGLVQAGGSLRLSCAASGSIFKYYVMGWYRQAPGNERELVATITSDGGTNYADSVKGRFTISRDNAKNTVYLQMNSLKPEDTAVYYCNAASRRGSRKQAKYDYWGQGTQVTVSS
- polyreactivity (PSR sort gate): low polyreactivity

Sequence: QVQLVESGGGLVQAGGSLRLSCAASGRTFVIYVMGLYRQAPGKERELVARISGSDGGTYYADSVKGRFTISRDNAKNTVYLQMNSLKPEDTAVYYCATARYPVAGLMDYWGQGTQVTVSS
- polyreactivity (PSR sort gate): low polyreactivity

Sequence: QVQLVESGGGLVQAGGSLRLSCAASGRTSKVYAMGWYRQAPGKERELVARITSSGVRTYYADSVKGRFTISRDNAKNTVYLQMNRLKPEDTAVYYCAKDARALWLHSGIYDYWGQGTQVTVSS
- polyreactivity (PSR sort gate): low polyreactivity

Sequence: QVQIVESGGGLVQAGGSLRLSGAASGRTFRPYTMGWYRPAPGKERELVARITSGGSTNYADSVKWRFTISRDNAKITVYLQMNSLKPEDTAVYYCNKPGYRLRLDDDYWGQGTQVTVSS
- polyreactivity (PSR sort gate): low polyreactivity

Sequence: QVQLVESGGGLVQAGGSLRLSCAASGFTFYRYAMGWYRQAPGKERELVASISWRGGNTYYADSVKGRFTISRDNAKNTVYLQMNSLKPEDTAVYYCAAGRSRIPSLLDYWGQGTQVTVSS
- polyreactivity (PSR sort gate): high polyreactivity

Sequence: QVQLVESGGGLVQTGGSLRLSCAASGRIFNGNAMGWYRQAPGKERELVAAITKSGGNTYYADSVKGRFTISRDNAKNTVYLEMNSLKQEDTAVYYCNAYYSLGAWKGAYDYWGQGTQVTVSS
- polyreactivity (PSR sort gate): low polyreactivity

Sequence: QVQLVESGGGLVQAGGSLRLSCAASGFTFNDYAMGRSRQAPGKERELVAAIDWSGGRTYYADSVKGRFTISRDYEKNTVYLQMKSLKPEDTAVYYCAAVLYSRLYWYSLDYWGQGTQVTVSS
- polyreactivity (PSR sort gate): low polyreactivity

Sequence: QVQLVESGGGLVQAGGSLRLSCAASGRIFYVYAMGWYRQAPGKERELVAAISSDDGSTYYADSVKGRFTISRDNAKNTVYLQMNSLKPEVTAVYYCAKANKRGRYNYWGQGTQVTVSS
- polyreactivity (PSR sort gate): high polyreactivity

Sequence: QVHLVESGGGLVQAGGSLRLSCAASGRIFYYNTMGWYRQAPGKERELVAAITTNGGSTYYADSVKGRFTISRDNAKNTVYLQMNSLKPEDTAVYYCNRDRYPYYYAYNYWGQGTQVTVSS
- polyreactivity (PSR sort gate): low polyreactivity

Sequence: QVQLVESGGGLVQAGGSLRLSCAASGRIFNQYGMGWYRQAPGKERELVAAIRSGDSTNYADSVKGRFTISRDNAKNTVYLPMNSLKPEDTAVYYCASDRPGDYAGYDYWGQGTQVTVSS
- polyreactivity (PSR sort gate): low polyreactivity

Sequence: QVQVVESGGGLVQAGGSLRLSCAASGRTFYPYAMGWYRQAPGKERELVAAISSSGGSTYYADSVKGRFTISRDNAKNTDYLPMNSLKPEDTAVYYCAAVASKYKYTGGMDYWGQGTQVTVSS
- polyreactivity (PSR sort gate): high polyreactivity

Sequence: QVQIVESGGGLVQAGGILRLSCAASVITFGYYAMGWYSQAPGKEWELVAAISRSGGNTRYADSVKGRFTISRDNAKNTVYLQMNSLTPEDTAVYYCAAYSRYTRTFPLFSGSRYGYWGHGTQVTVSS
- polyreactivity (PSR sort gate): high polyreactivity

Sequence: QVQLVESGGGLVQAGGSLSLSCAASGSTFSVYAMGWYRQAPGKERELVAAITRSGGSTYYADSVKGRFTISRDNAKNTVYLQMNSLIAEDSAVYYCNAEWYYVWFITTYWLDQYGYWGQGTQVTVSS
- polyreactivity (PSR sort gate): low polyreactivity

Sequence: QVQLVESGGGLVQAGGSLRLSCAASGRTFHRYAMGWYRQAPVKEREVLAAITSSGGSTNYADSVKVRFTISRDNAKNTVYVQMNSLQPEDTAVYYCATDRYRYTSHPWSRGFDYWGQGTQVTVSS
- polyreactivity (PSR sort gate): low polyreactivity

Sequence: QVQLVESGGGLVQAGGSLRLSCAASGFTFSLYAMGWYRQAPGKERELVASIDSDGVSTYYADSVKGRFTISRDNAKNTVYLQMNSLKPEDTAVYYCAADFWWGYISGPVRGRGYYWGQGTQVTVSS
- polyreactivity (PSR sort gate): low polyreactivity

Sequence: QVQLVESGGGLVQAGGSLRLSCAASVSIFRKNAMGWYRQAPGKERELVAAITYRTGSTYYADSVKGRFTISRDNAKNTVYLQMNSLKPEDTAVYYCAAQTWGSGYGHIGRRRHDYWGQGTQVTVSS
- polyreactivity (PSR sort gate): high polyreactivity

Sequence: QVQLVESGGGLVQAGGSLRLSCAASGRTFYYAMGWYRQAPGTERELVATITSGGSTNYADSVKGRFTISRDNAKNTVYLQMNSLKPEDTAVYYCNRDIPPGNYYKALYYYWGQGTQVTVSS
- polyreactivity (PSR sort gate): low polyreactivity

Sequence: QVKLVESGGGLVQAGGSLRLSCAASGRIFDRYAMGWYRQAPGKERELVAAITSRADRTYYADSVKGRFTISRDIAKNTVYLQMNSLKPEDTAVYYCNRRRRHYSYYSTLSYDYWGQGTQVTVSS
- polyreactivity (PSR sort gate): high polyreactivity

Sequence: QVQLVESGGGLVQAGGSLRLSCAASGRIFSPSDMGWYRQAPGKERELVAAIRSDGGRTHYADSVKGRFTISRDNAKNTVYLQMNSLKPEDTAVYYCARDNGRTITTTDTYDYWGQGTQVTVSS
- polyreactivity (PSR sort gate): low polyreactivity

Sequence: QVQLVESGGGLVQAGGSLRLSCAASGSTFPLYVMGWYRQAPGKERELVAAIDWSGGSTYYADSVKGRFTISRDTAKNTVYLQMNSLKPEDTAVYYCAADSPNSWRMDYWGQGTQVTVSS
- polyreactivity (PSR sort gate): low polyreactivity

Sequence: QVQLVESGGGLVQAGGSLRLSCAASGFTFYPYARGWYRQAPGKERELVAAISNGDSTHYADSVKGRFTISRDNAKNTVYLQMNSLKPQDTAVYYCNAYTRYPFYFVTSKYDYWGQGNQVTVSS
- polyreactivity (PSR sort gate): low polyreactivity

Sequence: QVQLVESGGGLVQAGGSLRLSCAASGSTFLDNAMGWFRQAPGKERELVAAITSGDSTKYADSVKGRFTISRDNEKNTVYLQMNSLKPEDTAVYYCAADVGRNKMDYWGQGTQVTVSS
- polyreactivity (PSR sort gate): low polyreactivity

Sequence: QVQLVESGGGLVQAGGSLRLSCAASGRIFVIYAKGWYRQAPGKERELVAVISSDGSTYYADSVKGRFTISRDNAKNTVYLQMNSLKPEDTAVYYCAADRIGRYRPYIGWVVRSYYWGQGTQVTVSS
- polyreactivity (PSR sort gate): low polyreactivity

Sequence: QVQLVESGGGLVQAGGSLRLSCAPSGRTIYHYAMGWYRQAPGKERELVAAITWSGGSTYYADSVKGRVTISRDNAKKTVYLQMNSLKPEDTAVYYWARYPARYGGYYDYDYWGQGTQVTVSS
- polyreactivity (PSR sort gate): high polyreactivity

Sequence: QVQLVESGGGIVQAGGSLRLSCAASGRIIVNYAMGWYRQAPGKERELVAAISYSGGGTYYADSVKGRFTISRDNAKNTVYLHMNSLKPEDTAVYYCATVRRDDRYNYWGQGNQVTVSS
- polyreactivity (PSR sort gate): low polyreactivity

Sequence: QVQLVESGGGLVQGGGSLRLSCAASGSIFSTYVMGWYRQGPGKERELVAAISRRGGSTYYADSVKGRFTISRDNAKNTVYLQMNSLNPADTAVYYCAADGTVGRRDYWGQGTQVTVSS
- polyreactivity (PSR sort gate): high polyreactivity

Sequence: QVQLVESGGGLVQAGGSLRLSCAASGFIFNLYAMGWYRQAPGKERELVAAISSGGGTSYADSVKGRFTISRDNAKNTVYLQMNSLKPEDTAVYYCAAGYKRRYYWKGYTRYDYWGQGTQVTVSS
- polyreactivity (PSR sort gate): high polyreactivity

Sequence: QVQLVESGGGLVQAGGSLRLSCAASGSIFSYYAMGWYRQAPGKERELVAAISQNGGSTYYADSVKGRFTNSRDNAKNSVSFQMNRLKAEETAVYYCYAYSVYVRGEYWGQGTQVTVSS
- polyreactivity (PSR sort gate): high polyreactivity

Sequence: QVQLVESGGGLVQAGGSLRLSCDASGSTFDYYAMGWYRQAPGKERELVAGIDSAGSTNYADSVKGRFTISRDNAKNTVYLQMNSLKTGRYRGLYCNVGKTITTYAFPTFDYCGQGTQVTVSS
- polyreactivity (PSR sort gate): low polyreactivity

Sequence: QVQLVESGGGLVQAGGSLRLSCAASGSICRQYTMGWYRQAPGKERELVAGINQSGDSTSADSVKGRFTISRDNAKNTVYLQMNSLKPEDTAVYYCNADPRVWYRNIYPGRNYDYWGQGTQVTVSS
- polyreactivity (PSR sort gate): low polyreactivity
